Laboratory results as given in US20130005944A1 (ANCHOR THERAPEUTICS, published 2013).
Where no end group is shown, it is not given here. [ ]: non-standard residue; d: D form. The star is where a group is joined. Ala(3-Me-diazirin-3-yl) = CC1(C[C@H](N)C(=O)O)N=N1; Hexadecanesulfonyl = CCCCCCCCCCCCCCCCS(=O)(=O)*; 2Nal = N[C@@H](Cc1ccc2ccccc2c1)C(=O)O; Palmitoyl = CCCCCCCCCCCCCCCC(=O)*; Hyp = O=C(O)[C@@H]1C[C@@H](O)CN1; Cit = NC(=O)NCCC[C@H](N)C(=O)O; code z = not defined here; hSer = N[C@@H](CCO)C(=O)O; Nle = CCCC[C@H](N)C(=O)O; Pra = C#CC[C@H](N)C(=O)O; Dap = NC[C@H](N)C(=O)O

B1: Compound No. 6 (Pal-MGYQKPLRSMTDKYRL) (peptide)
peptide: Palmitoyl-MGYQKPLRSMTDKYRL
B2: Compound No. 11 (Pal-MGYQKKLRSMTDKYRV) (peptide)
peptide: Palmitoyl-MGYQKKLRSMTDKYRV
modifications: not fully specified
B3: Compound No. 12 (Pal-MGYQKKLRSMTDKYR(Nle)) (peptide)
peptide: Pal-MGYQKKLRSMTDKYR[Nle]
B4: Compound No. 13 (Pal-MGYQKKLRSMTDKYKL) (peptide)
peptide: Palmitoyl-MGYQKKLRSMTDKYKL
modifications: not fully specified
B5: Compound No. 14 (Pal-MGYQKKLRSMTDKY(Cit)L) (peptide)
peptide: Pal-MGYQKKLRSMTDKY[Cit]L
B6: Compound No. 15 (Pal-MGYQKKLRSMTDKFRL) (peptide)
peptide: Palmitoyl-MGYQKKLRSMTDKFRL
modifications: not fully specified
B7: Compound No. 16 (Pal-MGYQKKLRSMTDK(Nal)RL) (peptide)
peptide: Pal-MGYQKKLRSMTDK[2Nal]RL
B8: Compound No. 17 (Pal-MGYQKKLRS(Nle)TDKYRL) (peptide)
peptide: Pal-MGYQKKLRS[Nle]TDKYRL
B9: Compound No. 18 (Pal-MGYQKKLRSHTDKYRL) (peptide)
peptide: Palmitoyl-MGYQKKLRSHTDKYRL
modifications: not fully specified
B10: Compound No. 19 (Pal-MGYQKKLRSGTDKYRL) (peptide)
peptide: Palmitoyl-MGYQKKLRSGTDKYRL
modifications: not fully specified
B11: Compound No. 20 (Pal-GYQKKLRS(Nle)TDKYRI) (peptide)
peptide: Pal-GYQKKLRS[Nle]TDKYRI
B12: Compound No. 22 (Pal-xGYQKKLRSxTDKYRL) (peptide)
peptide: Pal-[hSer]GYQKKLRS[hSer]TDKYRL
B13: Compound No. 7 (Pal-MGYQKKLPRSMTDKYRL) (peptide)
peptide: Palmitoyl-MGYQKKLPRSMTDKYRL
modifications: not fully specified
B14: Compound No. 23 (Pal-zGYQKKLRSzTDKYRL) (peptide)
peptide: Pal-[code z]GYQKKLRS[code z]TDKYRL
modifications: not fully specified; printed as Pal-zGYQKKLRSzTDKYRL; reading uncertain
B15: Compound No. 24 (Pal-(Pra)GYQKKLRSMTDKYRL) (peptide)
peptide: Pal-[Pra]GYQKKLRSMTDKYRL
B16: Compound No. 25 (Pal-GGYQKKLRSATDKYRL) (peptide)
peptide: Palmitoyl-GGYQKKLRSATDKYRL
modifications: not fully specified (C-terminus)
B17: Compound No. 26 (Pal-GGYQKKLRpHTDKYRL) (peptide)
peptide: Pal-GGYQKKLR[dP]HTDKYRL
B18: Compound No. 27 (Pal-GGYQKKLRpATDKYRL) (peptide)
peptide: Pal-GGYQKKLR[dP]ATDKYRL
B19: Compound No. 28 (Pal-GGYQKKpRpATDKYRL) (peptide)
peptide: Pal-GGYQKK[dP]R[dP]ATDKYRL
B20: Compound No. 29 (Pal-GGYQKKLRpATDKFRL) (peptide)
peptide: Pal-GGYQKKLR[dP]ATDKFRL
B21: Compound No. 30 (Pal-CGYQKKLRSATDKYRL) (peptide)
peptide: Palmitoyl-CGYQKKLRSATDKYRL
modifications: not fully specified
B22: Compound No. 31 (3-(dodecyloxy)propanoate-GGYQKKLRSATDKYRL) (peptide)
peptide: {3‑(dodecyloxy)propanoate}-GGYQKKLRSATDKYRL
modifications: not fully specified (C-terminus)
B23: Compound No. 32 (Pal-GGYQKKLRppHTDKYRL) (peptide)
peptide: Pal-GGYQKKLR[dP][dP]HTDKYRL
B24: Compound No. 8 (Pal-MGYQKKLRPSMTDKYRL) (peptide)
peptide: Palmitoyl-MGYQKKLRPSMTDKYRL
modifications: not fully specified
B25: Compound No. 33 (Pal-GGYQKKLRpWTDKYRL) (peptide)
peptide: Pal-GGYQKKLR[dP]WTDKYRL
B26: Compound No. 34 (Pal-GGYQKKLRp(Dpr)TDKYRL) (peptide)
peptide: Pal-GGYQKKLR[dP][Dap]TDKYRL
B27: Compound No. 35 (Pal-GGYQKKLR(Hyp)HTDKYRL) (peptide)
peptide: Pal-GGYQKKLR[Hyp]HTDKYRL
B28: Compound No. 36 (Pal-GGYQKKLRp(Hyp)TDKYRL) (peptide)
peptide: Pal-GGYQKKLR[dP][Hyp]TDKYRL
B29: Compound No. 37 (Pal-GGYQKK(photoLeu)RSATDKYRL) (peptide)
peptide: Pal-GGYQKK[Ala(3-Me-diazirin-3-yl)]RSATDKYRL
B30: Compound No. 38 (Pal-GGYQKKHRSATDKYRL) (peptide)
peptide: Palmitoyl-GGYQKKHRSATDKYRL
modifications: not fully specified
B31: Compound No. 40 (Pal-GGYQKKLRSATDKYRLH) (peptide)
peptide: Palmitoyl-GGYQKKLRSATDKYRLH
modifications: not fully specified
B32: Compound No. 41 (Pal-GGYQKKLRTATDKYRL) (peptide)
peptide: Palmitoyl-GGYQKKLRTATDKYRL
modifications: not fully specified
B33: Compound No. 46 (CH3(CH2)15SO2-GGYQKKLRpHTDKYRL-amide) (peptide)
peptide: Hexadecanesulfonyl-GGYQKKLR[dP]HTDKYRL-NH2
modifications: also: table lists the lipid as 'Pal'
B34: Compound No. 9 (Pal-MGYQKKLRSpMTDKYRL) (peptide)
peptide: Pal-MGYQKKLRS[dP]MTDKYRL

Each binder was assayed against CXCR4 receptor (human, UniProt P61073 1-352) (assay: cell-based or functional assay).
CXCR4 receptor, sequence (P61073 whole entry): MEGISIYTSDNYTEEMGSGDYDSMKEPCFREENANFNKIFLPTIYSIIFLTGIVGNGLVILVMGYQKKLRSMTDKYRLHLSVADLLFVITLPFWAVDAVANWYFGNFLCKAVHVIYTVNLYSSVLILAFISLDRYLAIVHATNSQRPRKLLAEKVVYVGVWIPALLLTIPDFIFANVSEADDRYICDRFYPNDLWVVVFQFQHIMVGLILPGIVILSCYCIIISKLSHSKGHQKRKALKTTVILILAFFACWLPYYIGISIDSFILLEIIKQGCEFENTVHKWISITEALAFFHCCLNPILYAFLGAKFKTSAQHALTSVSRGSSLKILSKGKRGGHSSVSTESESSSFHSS

| Binder | % Intrinsic Activity, calcium flux, CEM cells (Flexstation) | EC50 (nM), calcium flux, CEM cells, agonist mode (Flexstation) | EC50 (nM), calcium flux, CEM cells, agonist mode (FLIPR) |
| --- | --- | --- | --- |
| B1 | 90.2% | 161 nM | – |
| B2 | 61.7% | 1320 nM | – |
| B3 | 73.2% | 249 nM | – |
| B4 | 61.4% | 194 nM | – |
| B5 | 3.61% | 10000 nM | – |
| B6 | 81.5% | 135 nM | – |
| B7 | 34.4% | 3020 nM | – |
| B8 | 62.7% | 208 nM | – |
| B9 | 93.4% | 110 nM | – |
| B10 | 101% | 370 nM | – |
| B11 | 62.5% | 232 nM | – |
| B12 | 77.7% | 125 nM | – |
| B13 | 100% | 153 nM | – |
| B14 | 87.2% | 83 nM | – |
| B15 | 76.6% | 267 nM | – |
| B16 | 89.4% | 36.8 nM | – |
| B17 | 91.2% | 55.2 nM | – |

| Binder | % Intrinsic Activity, calcium flux, CEM cells (Flexstation) | EC50 (nM), calcium flux, CEM cells, agonist mode (Flexstation) | EC50 (nM), calcium flux, CEM cells, agonist mode (FLIPR) |
| --- | --- | --- | --- |
| B18 | 111% | 85.9 nM | – |
| B19 | 107% | 25 nM | – |
| B20 | 88.9% | 26.3 nM | – |
| B21 | 95.3% | 144 nM | – |
| B22 | 84.2% | 154 nM | – |
| B23 | 91.1% | 73.2 nM | – |
| B24 | 88% | 169 nM | – |
| B25 | 93% | 109 nM | – |
| B26 | 103% | 89 nM | – |
| B27 | 89.4% | 45 nM | – |
| B28 | 55.2% | 603 nM | – |
| B29 | 85.7% | 71.2 nM | – |
| B30 | 86.8% | 27 nM | – |
| B31 | 78.7% | 297 nM | – |
| B32 | 149% | 106 nM | – |
| B33 | – | – | 12.5 nM |
| B34 | 77.9% | 123 nM | – |
